This assay concerns the target human TLR5 (293-hTLR5-LacZ reporter cells) (human, UniProt O60602 21-858). Briefly: cell-based or functional assay.

Chain of human TLR5 (293-hTLR5-LacZ reporter cells) (O60602 21-858): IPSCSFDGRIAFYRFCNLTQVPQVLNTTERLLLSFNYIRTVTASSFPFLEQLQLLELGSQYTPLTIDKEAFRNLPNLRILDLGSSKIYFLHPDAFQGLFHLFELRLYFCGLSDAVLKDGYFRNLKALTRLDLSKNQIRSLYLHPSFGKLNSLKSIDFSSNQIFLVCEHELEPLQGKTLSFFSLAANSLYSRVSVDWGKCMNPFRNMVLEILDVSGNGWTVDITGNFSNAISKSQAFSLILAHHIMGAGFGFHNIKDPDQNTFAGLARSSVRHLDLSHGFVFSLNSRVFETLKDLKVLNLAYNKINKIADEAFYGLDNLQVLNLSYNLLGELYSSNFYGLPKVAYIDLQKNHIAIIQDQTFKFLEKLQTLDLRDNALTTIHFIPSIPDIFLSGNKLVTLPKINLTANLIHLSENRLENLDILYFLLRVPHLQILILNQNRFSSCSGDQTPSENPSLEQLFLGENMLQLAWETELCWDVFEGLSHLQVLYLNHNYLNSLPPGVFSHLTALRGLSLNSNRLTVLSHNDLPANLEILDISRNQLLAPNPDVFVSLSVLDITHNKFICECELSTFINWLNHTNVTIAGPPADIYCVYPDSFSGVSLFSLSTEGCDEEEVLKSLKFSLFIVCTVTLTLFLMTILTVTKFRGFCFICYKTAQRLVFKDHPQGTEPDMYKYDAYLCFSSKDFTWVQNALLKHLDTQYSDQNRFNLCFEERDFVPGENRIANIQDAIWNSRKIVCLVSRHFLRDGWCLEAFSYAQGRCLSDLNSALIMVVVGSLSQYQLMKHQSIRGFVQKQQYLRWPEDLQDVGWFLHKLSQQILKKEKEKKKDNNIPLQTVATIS

B1: entolimod/CBLB502 (ligand)
chain: not shown
Take B1: the “EC50, ng/ml (NF-κB reporter enzyme activity)” value worked out at 0.032 ng/mL and the “EC50, pM (NF-κB reporter enzyme activity)” value worked out at 0.92 pM.

For the origin of these results see patent publication US20220024991A1 (GENOME PROTECTION, published 2022).
